Tested on: Escherichia coli TOP10
Assay: shrunken log2 fold change of peptide-encoding DNA abundance (4.5 h post-induction vs induction); higher = less antimicrobial activity (less host growth inhibition)
Details: time post-induction: 4.5 h; library: site-saturation at positions 5, 18, 19, 20
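Note: peptides expressed intracellularly from a pBAD plasmid library in pooled LB shake-flask culture, induced with 0.3% L-arabinose, DNA abundance read by NGS, three biological replicates, DESeq2 with apeglm shrinkage.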

Sequence	shrunken log2 fold change
RRIRIRPPRLPRPRPRPVWGPRP	0.0298
RRIRIRPPRLPRPRPRPVWYPRP	-0.84
RRIRIRPPRLPRPRPRPVYWPRP	-0.208
RRIRIRPPRLPRPRPRPWANPRP	-0.0688
RRIRIRPPRLPRPRPRPWCIPRP	-0.0951
RRIRIRPPRLPRPRPRPWCSPRP	-0.412
RRIRIRPPRLPRPRPRPWDEPRP	-0.156
RRIRIRPPRLPRPRPRPWFRPRP	-0.129
RRIRIRPPRLPRPRPRPWFTPRP	-0.563
RRIRIRPPRLPRPRPRPWGQPRP	-0.00987
RRIRIRPPRLPRPRPRPWHRPRP	0.0544
RRIRIRPPRLPRPRPRPWINPRP	-0.379
RRIRIRPPRLPRPRPRPWIWPRP	-0.109
RRIRIRPPRLPRPRPRPWKNPRP	-0.235
RRIRIRPPRLPRPRPRPWKRPRP	-0.0143
RRIRIRPPRLPRPRPRPWPQPRP	0.0274
RRIRIRPPRLPRPRPRPWTMPRP	-0.163
RRIRIRPPRLPRPRPRPWWTPRP	-0.0807
RRIRIRPPRLPRPRPRPWYSPRP	-0.821
RRIRIRPPRLPRPRPRPWYVPRP	-0.247
RRIRIRPPRLPRPRPRPYACPRP	-0.0484
RRIRIRPPRLPRPRPRPYAIPRP	-0.0122
RRIRIRPPRLPRPRPRPYAVPRP	-0.937
RRIRIRPPRLPRPRPRPYCMPRP	-1.34
RRIRIRPPRLPRPRPRPYCYPRP	-0.0959

Sequence	shrunken log2 fold change
RRIRIRPPRLPRPRPRPYDFPRP	0.126
RRIRIRPPRLPRPRPRPYEEPRP	-0.828
RRIRIRPPRLPRPRPRPYELPRP	-0.0687
RRIRIRPPRLPRPRPRPYESPRP	-0.0135
RRIRIRPPRLPRPRPRPYFIPRP	-1.14
RRIRIRPPRLPRPRPRPYFYPRP	-0.469
RRIRIRPPRLPRPRPRPYHQPRP	0.0196
RRIRIRPPRLPRPRPRPYKDPRP	-0.317
RRIRIRPPRLPRPRPRPYLFPRP	-0.376
RRIRIRPPRLPRPRPRPYNAPRP	-0.734
RRIRIRPPRLPRPRPRPYQHPRP	-0.136
RRIRIRPPRLPRPRPRPYQIPRP	-0.273
RRIRIRPPRLPRPRPRPYRTPRP	0.0026
RRIRIRPPRLPRPRPRPYSAPRP	-0.221
RRIRIRPPRLPRPRPRPYSHPRP	-0.941
RRIRIRPPRLPRPRPRPYSMPRP	-0.436
RRIRIRPPRLPRPRPRPYWLPRP	-0.413
RRIRIRPPRLPRPRPRPYWTPRP	-0.18
RRIRIRPPRLPRPRPRPYYAPRP	-0.949
RRIRKRPPRLPRPRPRPAALPRP	0.831
RRIRKRPPRLPRPRPRPAAYPRP	0.361
RRIRKRPPRLPRPRPRPACHPRP	0.211
RRIRKRPPRLPRPRPRPACIPRP	0.031
RRIRKRPPRLPRPRPRPADAPRP	0.194
RRIRKRPPRLPRPRPRPADKPRP	0.122

Sequence	shrunken log2 fold change
RRIRKRPPRLPRPRPRPAEFPRP	0.0773
RRIRKRPPRLPRPRPRPAFCPRP	0.422
RRIRKRPPRLPRPRPRPAIGPRP	1.04
RRIRKRPPRLPRPRPRPAIIPRP	-0.0297
RRIRKRPPRLPRPRPRPAIPPRP	0.000942
RRIRKRPPRLPRPRPRPAKRPRP	2.15
RRIRKRPPRLPRPRPRPAMEPRP	0.0841
RRIRKRPPRLPRPRPRPAMKPRP	0.141
RRIRKRPPRLPRPRPRPATQPRP	0.958
RRIRKRPPRLPRPRPRPAWLPRP	0.564
RRIRKRPPRLPRPRPRPAYGPRP	0.397
RRIRKRPPRLPRPRPRPAYSPRP	-0.0338
RRIRKRPPRLPRPRPRPCADPRP	0.006
RRIRKRPPRLPRPRPRPCALPRP	0.0167
RRIRKRPPRLPRPRPRPCCTPRP	-0.0454
RRIRKRPPRLPRPRPRPCDAPRP	0.0682
RRIRKRPPRLPRPRPRPCEIPRP	0.128
RRIRKRPPRLPRPRPRPCEMPRP	0.0303
RRIRKRPPRLPRPRPRPCFRPRP	-0.0108
RRIRKRPPRLPRPRPRPCFSPRP	-0.51
RRIRKRPPRLPRPRPRPCGEPRP	0.166
RRIRKRPPRLPRPRPRPCGNPRP	0.0169
RRIRKRPPRLPRPRPRPCHKPRP	0.0108
RRIRKRPPRLPRPRPRPCIGPRP	0.0382
RRIRKRPPRLPRPRPRPCPRPRP	0.163

Sequence	shrunken log2 fold change
RRIRKRPPRLPRPRPRPCQHPRP	-0.167
RRIRKRPPRLPRPRPRPCSMPRP	-0.00483
RRIRKRPPRLPRPRPRPCTFPRP	0.00111
RRIRKRPPRLPRPRPRPCWPPRP	0.0513
RRIRKRPPRLPRPRPRPCYTPRP	-0.0178
RRIRKRPPRLPRPRPRPDAPPRP	1.46
RRIRKRPPRLPRPRPRPDCNPRP	-0.00139
RRIRKRPPRLPRPRPRPDDSPRP	-0.0813
RRIRKRPPRLPRPRPRPDEQPRP	2.64
RRIRKRPPRLPRPRPRPDESPRP	0.0701
RRIRKRPPRLPRPRPRPDFSPRP	0.0114
RRIRKRPPRLPRPRPRPDHLPRP	-0.0896
RRIRKRPPRLPRPRPRPDHSPRP	-0.148
RRIRKRPPRLPRPRPRPDHWPRP	0.355
RRIRKRPPRLPRPRPRPDICPRP	0.0913
RRIRKRPPRLPRPRPRPDLAPRP	0.042
RRIRKRPPRLPRPRPRPDLEPRP	0.0158
RRIRKRPPRLPRPRPRPDMRPRP	0.0676
RRIRKRPPRLPRPRPRPDMTPRP	1.34
RRIRKRPPRLPRPRPRPDPVPRP	-0.146
RRIRKRPPRLPRPRPRPDQGPRP	-0.0154
RRIRKRPPRLPRPRPRPDQVPRP	0.0449
RRIRKRPPRLPRPRPRPDTMPRP	0.224
RRIRKRPPRLPRPRPRPDVWPRP	0.679
RRIRKRPPRLPRPRPRPEACPRP	0.0762

Sequence	shrunken log2 fold change
RRIRKRPPRLPRPRPRPEDTPRP	0.103
RRIRKRPPRLPRPRPRPEESPRP	0.0563
RRIRKRPPRLPRPRPRPEEYPRP	0.0303
RRIRKRPPRLPRPRPRPEGDPRP	1.24
RRIRKRPPRLPRPRPRPEGEPRP	-0.0225
RRIRKRPPRLPRPRPRPEHCPRP	0.0607
RRIRKRPPRLPRPRPRPELCPRP	-0.021
RRIRKRPPRLPRPRPRPELFPRP	0.155
RRIRKRPPRLPRPRPRPELLPRP	0.394
RRIRKRPPRLPRPRPRPELWPRP	1.42
RRIRKRPPRLPRPRPRPEMGPRP	0.502
RRIRKRPPRLPRPRPRPEPQPRP	0.637
RRIRKRPPRLPRPRPRPEPVPRP	0.0885
RRIRKRPPRLPRPRPRPEQKPRP	0.125
RRIRKRPPRLPRPRPRPERYPRP	-0.0119
RRIRKRPPRLPRPRPRPESEPRP	2.93
RRIRKRPPRLPRPRPRPESMPRP	0.603
RRIRKRPPRLPRPRPRPETFPRP	-0.00962
RRIRKRPPRLPRPRPRPETIPRP	0.0906
RRIRKRPPRLPRPRPRPETNPRP	2.35
RRIRKRPPRLPRPRPRPEYIPRP	-0.367
RRIRKRPPRLPRPRPRPFAVPRP	-0.14
RRIRKRPPRLPRPRPRPFCDPRP	0.144
RRIRKRPPRLPRPRPRPFDCPRP	-0.128
RRIRKRPPRLPRPRPRPFDIPRP	-0.0132

Sequence	shrunken log2 fold change
RRIRKRPPRLPRPRPRPFDWPRP	0.243
RRIRKRPPRLPRPRPRPFFFPRP	0.779
RRIRKRPPRLPRPRPRPFGSPRP	-0.00822
RRIRKRPPRLPRPRPRPFHAPRP	-0.179
RRIRKRPPRLPRPRPRPFHHPRP	-0.131
RRIRKRPPRLPRPRPRPFHSPRP	0.00367
RRIRKRPPRLPRPRPRPFHTPRP	-0.0289
RRIRKRPPRLPRPRPRPFLMPRP	0.043
RRIRKRPPRLPRPRPRPFMPPRP	-0.0694
RRIRKRPPRLPRPRPRPFNWPRP	0.00115
RRIRKRPPRLPRPRPRPFPDPRP	-0.112
RRIRKRPPRLPRPRPRPFPEPRP	0.273
RRIRKRPPRLPRPRPRPFPLPRP	0.289
RRIRKRPPRLPRPRPRPFPVPRP	-0.288
RRIRKRPPRLPRPRPRPFQEPRP	0.149
RRIRKRPPRLPRPRPRPFQQPRP	0.202
RRIRKRPPRLPRPRPRPFSGPRP	-0.172
RRIRKRPPRLPRPRPRPFSSPRP	-0.219
RRIRKRPPRLPRPRPRPFTVPRP	-0.00947
RRIRKRPPRLPRPRPRPFVAPRP	0.115
RRIRKRPPRLPRPRPRPFVDPRP	-0.0489
RRIRKRPPRLPRPRPRPFYFPRP	0.00515
RRIRKRPPRLPRPRPRPFYNPRP	-0.695
RRIRKRPPRLPRPRPRPGEIPRP	0.0945
RRIRKRPPRLPRPRPRPGEPPRP	0.305

Reference: the supplement of paper PMC9112550, “Optimization of the antimicrobial peptide Bac7 by deep mutational scanning” (BMC Biology, 2022)
